Experimental data: IntAct's records for PubMed 11923305

Assays:
src_chick SRC [1] = target: src_chick SRC (UniProt P00523)
src_human SRC [2] = target: src_human SRC (UniProt P12931)
src_human SRC [3] = target: src_human SRC (UniProt P12931); remark: listed apart in the source
src_chick SRC [4] = target: src_chick SRC (UniProt P00523); remark: listed apart in the source

effect of a mutation on the interaction (src_chick SRC [1])	effect of a mutation on the interaction (src_human SRC [2])	effect of a mutation on the interaction (src_human SRC [3])	effect of a mutation on the interaction (src_chick SRC [4])	Substance
disrupting interaction	disrupting interaction	–	–	Receptor-type tyrosine-protein phosphatase alpha (Homo sapiens) (from UniProt P18433) S189A
–	–	disrupting interaction	disrupting interaction	Receptor-type tyrosine-protein phosphatase alpha (Homo sapiens) (from UniProt P18433) S204A
